Data from the supplement of paper PMC9732359.
± gives the uncertainty stated by the source.

Assay: protein stability index of a GFP-peptide fusion (yeast GPS) (PSI 1-4); higher = more stable; sorted into four equal gates, so the index is relative within each strain
Procedure, shortened: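 For each peptide, the protein stability index sums the read frequency in every gate after multiplying it by the gate number. Read frequencies came from plasmids that were PCR-amplified from each gate and Illumina-sequenced, with reads assigned to strains by barcodes. The gates were four equal bins of GFP/Cherry fluorescence ratio applied to mid-log yeast in leucine-free medium carrying a pooled library of tiled 17-residue yeast protein peptides fused downstream of GFP on a Cherry-expressing plasmid.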

APKIHILDPSTEYCVGD [YMR129W/POM152] gave a protein stability index (doa10∆) of 2.91 ± 0.13, a protein stability index (pdr5∆) of 3.35 ± 0.092 and a protein stability index (san1∆) of 2.97 ± 0.087. For the same sequence, the protein stability index (ubr1∆) was 2.79 ± 0.13.

EEESLHVFQYANRPRLV [RPC37] showed a protein stability index (doa10∆) of 1.36 ± 0.058, a protein stability index (pdr5∆) of 1.66 ± 0.081 and a protein stability index (san1∆) of 1.79 ± 0.13. The protein stability index (ubr1∆) was 2.21 ± 0.047.

VGGTTSISGFKEALLGQ [ARP9] gave a protein stability index (doa10∆) of 2.67 ± 0.087, a protein stability index (pdr5∆) of 2.53 ± 0.053 and a protein stability index (san1∆) of 2.51 ± 0.048. The protein stability index (ubr1∆) was 2.81 ± 0.039.

With PYQHPPNIFPNLTYYNE [ITC1] the protein stability index (doa10∆) was 2.68 ± 0.058, the protein stability index (pdr5∆) was 2.83 ± 0.045 and the protein stability index (san1∆) was 2.66 ± 0.045. It also gave a protein stability index (ubr1∆) of 2.76 ± 0.039.

Sequence GKGHLVGRLASVVAKQL [RPL16A] has a protein stability index (doa10∆) of 1.33 ± 0.057, a protein stability index (pdr5∆) of 1.48 ± 0.051 and a protein stability index (san1∆) of 1.33 ± 0.099. For the same sequence, the protein stability index (ubr1∆) was 1.32 ± 0.05.

Work on IQLLDENVGTRLLPINV [MED11] yielded a protein stability index (doa10∆) of 3.09 ± 0.16, a protein stability index (pdr5∆) of 2.86 ± 0.1 and a protein stability index (san1∆) of 3.14 ± 0.066. The protein stability index (ubr1∆) was 3.16 ± 0.063.

Sequence AYNKKSTISAREIQTAV [HTB1] has a protein stability index (doa10∆) of 2.5 ± 0.1, a protein stability index (pdr5∆) of 3.03 ± 0.089 and a protein stability index (san1∆) of 2.98 ± 0.12. The protein stability index (ubr1∆) was 2.92 ± 0.13.

Work on IDRKVEFSLPDLEGRAN [RPT1] yielded a protein stability index (doa10∆) of 3.15 ± 0.097, a protein stability index (pdr5∆) of 3.37 ± 0.1 and a protein stability index (san1∆) of 3.08 ± 0.17. It also gave a protein stability index (ubr1∆) of 3.18 ± 0.1.

For LENFKSYAGKQVVGPFH [SMC4], the protein stability index (doa10∆) was 3.04 ± 0.076, the protein stability index (pdr5∆) was 3.2 ± 0.19 and the protein stability index (san1∆) was 2.98 ± 0.11. For the same sequence, the protein stability index (ubr1∆) was 2.98 ± 0.1.

Work on NLDAAAAGTSQARTATL [RPC10] yielded a protein stability index (doa10∆) of 2.65 ± 0.17, a protein stability index (pdr5∆) of 3.15 ± 0.15 and a protein stability index (san1∆) of 2.73 ± 0.1. For the same sequence, the protein stability index (ubr1∆) was 2.86 ± 0.096.

For STSNALKVLSGDEGYNE [SNF12], the protein stability index (doa10∆) was 3.39 ± 0.11, the protein stability index (pdr5∆) was 3.24 ± 0.11 and the protein stability index (san1∆) was 3.04 ± 0.059. It also gave a protein stability index (ubr1∆) of 3.5 ± 0.13.

QLELRQLNASISLIPEL [RRI2] showed a protein stability index (doa10∆) of 2.55 ± 0.062, a protein stability index (pdr5∆) of 2.58 ± 0.069 and a protein stability index (san1∆) of 2.42 ± 0.063. The protein stability index (ubr1∆) was 2.85 ± 0.043.

Sequence SIMPDLYFYRDPEEVEQ [RPS0A] has a protein stability index (doa10∆) of 2.86 ± 0.082, a protein stability index (pdr5∆) of 2.95 ± 0.077 and a protein stability index (san1∆) of 2.94 ± 0.063. It also gave a protein stability index (ubr1∆) of 2.85 ± 0.06.

With KQINEARDEILPLRLQF [PGD1] the protein stability index (doa10∆) was 2.13 ± 0.065, the protein stability index (pdr5∆) was 2.63 ± 0.077 and the protein stability index (san1∆) was 2.4 ± 0.074. For the same sequence, the protein stability index (ubr1∆) was 2.77 ± 0.052.

LKIYAQIEKKEIKKMII [YCG1] showed a protein stability index (doa10∆) of 3.06 ± 0.059, a protein stability index (pdr5∆) of 2.8 ± 0.051 and a protein stability index (san1∆) of 2.89 ± 0.057. For the same sequence, the protein stability index (ubr1∆) was 3.01 ± 0.07.

For YVPTRNTFNYDVKISND [RPN4], the protein stability index (doa10∆) was 1.85 ± 0.068, the protein stability index (pdr5∆) was 2.3 ± 0.065 and the protein stability index (san1∆) was 2.29 ± 0.078. It also gave a protein stability index (ubr1∆) of 2.25 ± 0.056.

Sequence SKEWFQLDDEDFDLLNK [FAS1] has a protein stability index (doa10∆) of 3.03 ± 0.11, a protein stability index (pdr5∆) of 3.31 ± 0.1 and a protein stability index (san1∆) of 3.28 ± 0.084. For the same sequence, the protein stability index (ubr1∆) was 3.06 ± 0.08.

CRVDFKNPHDIIEGINA [RPL12A] showed a protein stability index (doa10∆) of 2.19 ± 0.07, a protein stability index (pdr5∆) of 2.45 ± 0.072 and a protein stability index (san1∆) of 1.83 ± 0.12. For the same sequence, the protein stability index (ubr1∆) was 2.43 ± 0.05.

Work on KSTDLTPKGNESEQELS [MTR3] yielded a protein stability index (doa10∆) of 3.39 ± 0.11, a protein stability index (pdr5∆) of 2.9 ± 0.089 and a protein stability index (san1∆) of 2.46 ± 0.089. It also gave a protein stability index (ubr1∆) of 3.21 ± 0.054.

EYSYVDSNMDSISSVVS [RPN4] showed a protein stability index (doa10∆) of 2.84 ± 0.075, a protein stability index (pdr5∆) of 3.26 ± 0.066 and a protein stability index (san1∆) of 2.68 ± 0.076. The protein stability index (ubr1∆) was 3.05 ± 0.043.

In the case of SKDLRSVWKPIAAIIGR [IRR1], the protein stability index (doa10∆) is reported as 2.56 ± 0.06, the protein stability index (pdr5∆) is reported as 2.15 ± 0.032 and the protein stability index (san1∆) is reported as 2.75 ± 0.049. It also gave a protein stability index (ubr1∆) of 2.58 ± 0.038.

In the case of SKSAPSKKISNTAAALV [YAR002W/NUP60], the protein stability index (doa10∆) is reported as 3.1 ± 0.067, the protein stability index (pdr5∆) is reported as 2.97 ± 0.068 and the protein stability index (san1∆) is reported as 3.12 ± 0.041. It also gave a protein stability index (ubr1∆) of 3.14 ± 0.048.

In the case of GALEEITKDHKVLARQQ [FAS2], the protein stability index (doa10∆) is reported as 2.31 ± 0.25, the protein stability index (san1∆) is reported as 3.01 ± 0.12 and the protein stability index (ubr1∆) is reported as 2.73 ± 0.17.

Sequence QTENDLKDIEARIKEKA [RPT1] has a protein stability index (doa10∆) of 2.8 ± 0.13, a protein stability index (pdr5∆) of 2.91 ± 0.11 and a protein stability index (san1∆) of 3.03 ± 0.099. It also gave a protein stability index (ubr1∆) of 3.37 ± 0.065.

For QRRVLLSAPLSKELRAQ [RPL26A], the protein stability index (doa10∆) was 2.65 ± 0.073, the protein stability index (pdr5∆) was 2.43 ± 0.078 and the protein stability index (san1∆) was 2.62 ± 0.08. For the same sequence, the protein stability index (ubr1∆) was 2.39 ± 0.063.

In the case of KKPSPQTIPIQIYGFEG [YGR119C/NUP57], the protein stability index (doa10∆) is reported as 2.61 ± 0.26, the protein stability index (pdr5∆) is reported as 3.06 ± 0.22 and the protein stability index (san1∆) is reported as 2.49 ± 0.15. For the same sequence, the protein stability index (ubr1∆) was 3.08 ± 0.17.

Sequence EIGITQQRIVSAYEASM [RRP4] has a protein stability index (doa10∆) of 3.04 ± 0.098, a protein stability index (pdr5∆) of 2.98 ± 0.081 and a protein stability index (san1∆) of 2.75 ± 0.12. It also gave a protein stability index (ubr1∆) of 2.85 ± 0.065.

With AARVDIGQIIFSVRTKD [RPL10] the protein stability index (doa10∆) was 1.74 ± 0.078, the protein stability index (pdr5∆) was 1.67 ± 0.081 and the protein stability index (san1∆) was 2.78 ± 0.12. The protein stability index (ubr1∆) was 2.04 ± 0.057.

Work on KTTRLLLIIRSLKNTDA [YJL039C/NUP192] yielded a protein stability index (doa10∆) of 1.51 ± 0.056, a protein stability index (pdr5∆) of 1.31 ± 0.053 and a protein stability index (san1∆) of 1.19 ± 0.12. It also gave a protein stability index (ubr1∆) of 1.11 ± 0.059.

For KPDSDIVALSSEEINQY [PRE6], the protein stability index (doa10∆) was 3.12 ± 0.05, the protein stability index (pdr5∆) was 3.03 ± 0.047 and the protein stability index (san1∆) was 3.185 ± 0.03. The protein stability index (ubr1∆) was 3.17 ± 0.034.

With DESLIRELYKYVRKHDP [PRP28] the protein stability index (doa10∆) was 3.4 ± 0.14, the protein stability index (pdr5∆) was 3.48 ± 0.16 and the protein stability index (san1∆) was 2.83 ± 0.17. It also gave a protein stability index (ubr1∆) of 3.09 ± 0.12.

Sequence VAIDQDKITLHDEKTLA [SIR4] has a protein stability index (doa10∆) of 2.01 ± 0.097, a protein stability index (pdr5∆) of 2.22 ± 0.096 and a protein stability index (san1∆) of 2.26 ± 0.17. It also gave a protein stability index (ubr1∆) of 2.71 ± 0.08.

Work on QVPSSLIVRAKNHTHNL [RRP4] yielded a protein stability index (doa10∆) of 2.56 ± 0.076, a protein stability index (pdr5∆) of 2.89 ± 0.06 and a protein stability index (san1∆) of 2.67 ± 0.072. It also gave a protein stability index (ubr1∆) of 2.87 ± 0.055.

With EPSYIFEYLATVMYQRR [PRE4] the protein stability index (doa10∆) was 2.1 ± 0.081, the protein stability index (pdr5∆) was 2.46 ± 0.1 and the protein stability index (san1∆) was 2.26 ± 0.091. It also gave a protein stability index (ubr1∆) of 2.12 ± 0.079.

With DISLKADLERFFLSIYF [YJL039C/NUP192] the protein stability index (doa10∆) was 3.24 ± 0.13, the protein stability index (pdr5∆) was 2.79 ± 0.092 and the protein stability index (san1∆) was 2.96 ± 0.099. The protein stability index (ubr1∆) was 2.94 ± 0.044.

SSISWKNIAQCLSDYTK [YJL039C/NUP192] gave a protein stability index (doa10∆) of 2.05 ± 0.08, a protein stability index (pdr5∆) of 2.11 ± 0.076 and a protein stability index (san1∆) of 1.87 ± 0.076. It also gave a protein stability index (ubr1∆) of 2.11 ± 0.058.

Sequence DDMDIDEVNDRSDISDS [PCI8] has a protein stability index (doa10∆) of 3.22 ± 0.12, a protein stability index (pdr5∆) of 3.1 ± 0.1 and a protein stability index (san1∆) of 3.26 ± 0.048. It also gave a protein stability index (ubr1∆) of 3.02 ± 0.085.

KDRLYCGKCHSVYKVNA [RPS31] showed a protein stability index (doa10∆) of 1.49 ± 0.086, a protein stability index (pdr5∆) of 2.26 ± 0.1 and a protein stability index (san1∆) of 1.89 ± 0.14. It also gave a protein stability index (ubr1∆) of 2.01 ± 0.052.

Sequence TMRKISSETDDDHSQVI [DSN1] has a protein stability index (doa10∆) of 2.91 ± 0.048, a protein stability index (pdr5∆) of 3.24 ± 0.064 and a protein stability index (san1∆) of 3.1 ± 0.035. It also gave a protein stability index (ubr1∆) of 3.15 ± 0.055.

EEAGEEEAKEEVTEEQA [RPS0A] showed a protein stability index (doa10∆) of 3.48 ± 0.12, a protein stability index (pdr5∆) of 3.5 ± 0.1 and a protein stability index (san1∆) of 3.02 ± 0.13. The protein stability index (ubr1∆) was 3.64 ± 0.092.

In the case of HTKSDERSELLRLFNAP [SNF2], the protein stability index (doa10∆) is reported as 2.83 ± 0.06, the protein stability index (pdr5∆) is reported as 2.72 ± 0.065 and the protein stability index (san1∆) is reported as 2.78 ± 0.049. For the same sequence, the protein stability index (ubr1∆) was 3.04 ± 0.06.

Work on RGNTKIHSMNENPTPEK [SIR3] yielded a protein stability index (doa10∆) of 3.11 ± 0.085, a protein stability index (pdr5∆) of 3.15 ± 0.11 and a protein stability index (san1∆) of 3.08 ± 0.056. For the same sequence, the protein stability index (ubr1∆) was 3.31 ± 0.067.

For PKSASNTSSKRQKKKPT [IRR1], the protein stability index (doa10∆) was 2.78 ± 0.069, the protein stability index (pdr5∆) was 2.61 ± 0.072 and the protein stability index (san1∆) was 2.65 ± 0.049. For the same sequence, the protein stability index (ubr1∆) was 2.96 ± 0.072.

For ISNYNTKYTDDMATGSN [SRB8], the protein stability index (doa10∆) was 3.04 ± 0.1, the protein stability index (pdr5∆) was 2.52 ± 0.11 and the protein stability index (san1∆) was 3.21 ± 0.058. For the same sequence, the protein stability index (ubr1∆) was 2.94 ± 0.085.
